Experimental data taken from US20140363844.

Columns and labels:
[1] = target: T1, Presegetalin A1[14,32]V25A
T1 chain: GVPVWAFQAKDAENASAPV

[2] = target: T2, Presegetalin A1[14,32]A22V
T2 chain: GVPVWAFQVKDVENASAPV

Presegetalin F1[14,38] = target: T3, Presegetalin F1[14,38]
T3 chain: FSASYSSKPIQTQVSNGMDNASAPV

[3] = target: T4, Presegetalin A1[14,32]A30V
T4 chain: GVPVWAFQAKDVENASVPV

[4] = target: T5, Presegetalin A1[14,32] ins 16AAA17
T5 chain: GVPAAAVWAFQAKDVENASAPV

[5] = target: T6, Presegetalin A1[14,32]D24A
T6 chain: GVPVWAFQAKAVENASAPV

[6] = target: T7, Presegetalin A1[14,32]V32A
T7 chain: GVPVWAFQAKDVENASAPA

[7] = target: T8, Presegetalin A1[14,32]V17v
T8 chain: GVPVWAFQAKDVENASAPV

[8] = target: T9, Presegetalin A1[14,32]V15A
T9 chain: GAPVWAFQAKDVENASAPV

B1: Saponaria vaccaria PCY1 (recombinant, N-terminal His6-tag, expressed in E. coli from pCB008) (protein)
chain: MATSGFSKPLHYPPVRRDETVVDDYFGVKVADPYRWLEDPNSEETKEFVDNQEKLANSVLEECELIDKFKQKIIDFVNFPRCGVPFRRANKYFHFYNSGLQAQNVFQMQDDLDGKPEVLYDPNLREGGRSGLSLYSVSEDAKYFAFGIHSGLTEWVTIKILKTEDRSYLPDTLEWVKFSPAIWTHDNKGFFYCPYPPLKEGEDHMTRSAVNQEARYHFLGTDQSEDILLWRDLENPAHHLKCQITDDGKYFLLYILDGCDDANKVYCLDLTKLPNGLESFRGREDSAPFMKLIDSFDASYTAIANDGSVFTFQTNKDAPRKKLVRVDLNNPSVWTDLVPESKKDLLESAHAVNENQLILRYLSDVKHVLEIRDLESGALQHRLPIDIGSVDGITARRRDSVVFFKFTSILTPGIVYQCDLKNDPTQLKIFRESVVPDFDRSEFEVKQVFVPSKDGTKIPIFIAARKGISLDGSHPCEMHGYGGFGINMMPTFSASRIVFLKHLGGVFCLANIRGGGEYGEEWHKAGFRDKKQNVFDDFISAAEYLISSGYTKARRVAIEGGSNGGLLVAACINQRPDLFGCAEANCGVMDMLRFHKFTLGYLWTGDYGCSDKEEEFKWLIKYSPIHNVRRPWEQPGNEETQYPATMILTADHDDRVVPLHSFKLLATMQHVLCTSLEDSPQKNPIIARIQRKAAHYGRATMTQIAEVADRYGFMAKALEAPWID
B1 was tested, and the “CP (cyclic peptide product detected by LC/MS)” value (“CP” for short) [1] was “+”, the “LP (linear peptide product detected by LC/MS)” value (“LP” for short) [1] was “+” and the “linear segetalin A production relative to WT substrate” value [1] was “showed a relative increase in production of linear segetalin A”. The “segetalin A production relative to WT substrate” value [1] was “substitutions at positions 25, 26 and 29 (No. 18, 19 and 22) yielded relatively higher amounts of segetalin A than that produced from WT substrate”, the “CP” value [2] was “+” and the “LP” value [2] was “+”. For the same protein, the “linear segetalin A production relative to WT substrate” value [2] was “showed a relative increase in production of linear segetalin A”, the “CP” value (Presegetalin F1[14,38]) was “+” and the “LP” value (Presegetalin F1[14,38]) was “-”. For the same protein, the “CP” value [3] was “+”, the “LP” value [3] was “+” and the “linear segetalin A production relative to WT substrate” value [3] was “showed a relative increase in production of linear segetalin A”. For the same protein, the “CP” value [4] was “+”, the “LP” value [4] was “+” and the “CP” value [5] was “+”. The “LP” value [5] was “+”, the “linear segetalin A production relative to WT substrate” value [5] was “showed a relative increase in production of linear segetalin A” and the “segetalin A production relative to WT substrate” value [5] was “segetalin A production was found to be ≧42 times lower than the WT substrate”. For the same protein, the “CP” value [6] was “+”, the “LP” value [6] was “+” and the “linear segetalin A production relative to WT substrate” value [6] was “showed a relative increase in production of linear segetalin A”. The “CP” value [7] was “+”, the “LP” value [7] was “-” and the “CP” value [8] was “+”. The “LP” value [8] was “+”.
